Test results reported in patent publication US20150196666A1.

What was measured:
CD22 (human) [1] = biological target: CD22 (human) (UniProt P20273); assay: flow cytometry, unconjugated antibody + FITC goat anti-human IgG, 697 cells; background in parentheses
CD22 (human) [2] = biological target: CD22 (human) (UniProt P20273); assay: flow cytometry, unconjugated antibody + FITC goat anti-human IgG, REH cells; background in parentheses
CD22 (human) [3] = biological target: CD22 (human) (UniProt P20273); assay: flow cytometry, unconjugated antibody + FITC goat anti-human IgG, Raji cells; background in parentheses
CD22 (human) [4] = biological target: CD22 (human) (UniProt P20273); assay: flow cytometry, unconjugated antibody + FITC goat anti-human IgG, Daudi cells; background in parentheses
CD22 (human) [5] = biological target: CD22 (human) (UniProt P20273); assay: flow cytometry, unconjugated antibody + FITC goat anti-human IgG, MN-60 cells; background in parentheses
CD22 (human) [6] = biological target: CD22 (human) (UniProt P20273); assay: flow cytometry, unconjugated antibody + FITC goat anti-human IgG, Ramos cells; background in parentheses
CD22 (human) [7] = biological target: CD22 (human) (UniProt P20273); assay: flow cytometry, unconjugated antibody + FITC goat anti-human IgG, Jeko-1 cells; background in parentheses
CD22 (human) [8] = biological target: CD22 (human) (UniProt P20273); assay: flow cytometry, unconjugated antibody + FITC goat anti-human IgG, RS4;11 cells; background in parentheses
CD22 (human) [9] = biological target: CD22 (human) (UniProt P20273); assay: flow cytometry, unconjugated antibody + FITC goat anti-human IgG, WSU-FSCCL cells; background in parentheses
[10] = biological target: human trophoblast cell-surface antigen (TROP-2) (human) (UniProt P09758); assay: cell binding assay on TROP-2-expressing cells
[11] = biological target: human trophoblast cell-surface antigen (TROP-2) (human) (UniProt P09758); assay: flow cytometry, surface, NCI-N87 cells
[12] = biological target: human trophoblast cell-surface antigen (TROP-2) (human) (UniProt P09758); assay: flow cytometry, surface binding on Capan-1 cells
[13] = biological target: CD74 (invariant chain, Ii) (human) (UniProt P04233); assay: flow cytometry, permeabilized Raji cells
[14] = biological target: CD74 (invariant chain, Ii) (human) (UniProt P04233); assay: flow cytometry, permeabilized A-375 cells
[15] = biological target: CD74 (invariant chain, Ii) (human) (UniProt P04233); assay: flow cytometry, permeabilized HuH-7 cells
[16] = biological target: CD74 (invariant chain, Ii) (human) (UniProt P04233); assay: flow cytometry, permeabilized Hep-G2 cells
[17] = biological target: CD74 (invariant chain, Ii) (human) (UniProt P04233); assay: flow cytometry, permeabilized Hs746T cells
[18] = biological target: CD74 (invariant chain, Ii) (human) (UniProt P04233); assay: flow cytometry, permeabilized Capan-1 cells
[19] = biological target: CD74 (invariant chain, Ii) (human) (UniProt P04233); assay: flow cytometry, permeabilized NCI-N87 cells
[20] = biological target: CD74 (invariant chain, Ii) (human) (UniProt P04233); assay: cell binding assay on antigen-positive cells
[21] = biological target: CD74 (invariant chain, Ii) (human) (UniProt P04233); assay: flow cytometry, membrane-only CD74, Raji cells
[22] = biological target: CD74 (invariant chain, Ii) (human) (UniProt P04233); assay: flow cytometry, membrane-only CD74, A-375 cells
[23] = biological target: CD74 (invariant chain, Ii) (human) (UniProt P04233); assay: flow cytometry, membrane-only CD74, HuH-7 cells
[24] = biological target: CD74 (invariant chain, Ii) (human) (UniProt P04233); assay: flow cytometry, membrane-only CD74, Hep-G2 cells
[25] = biological target: CD74 (invariant chain, Ii) (human) (UniProt P04233); assay: flow cytometry, membrane-only CD74, Hs746T cells
[26] = biological target: CD74 (invariant chain, Ii) (human) (UniProt P04233); assay: flow cytometry, membrane-only CD74, Capan-1 cells
[27] = biological target: CD74 (invariant chain, Ii) (human) (UniProt P04233); assay: flow cytometry, membrane-only CD74, NCI-N87 cells
[28] = biological target: CD74 (invariant chain, Ii) (human) (UniProt P04233); assay: flow cytometry, permeabilized Raji cells; background in parentheses
[29] = biological target: CD74 (invariant chain, Ii) (human) (UniProt P04233); assay: flow cytometry, permeabilized A-375 cells; background in parentheses
[30] = biological target: CD74 (invariant chain, Ii) (human) (UniProt P04233); assay: flow cytometry, permeabilized HuH-7 cells; background in parentheses
[31] = biological target: CD74 (invariant chain, Ii) (human) (UniProt P04233); assay: flow cytometry, permeabilized Hep-G2 cells; background in parentheses
[32] = biological target: CD74 (invariant chain, Ii) (human) (UniProt P04233); assay: flow cytometry, permeabilized Hs746T cells; background in parentheses
[33] = biological target: CD74 (invariant chain, Ii) (human) (UniProt P04233); assay: flow cytometry, permeabilized Capan-1 cells; background in parentheses
[34] = biological target: CD74 (invariant chain, Ii) (human) (UniProt P04233); assay: flow cytometry, permeabilized NCI-N87 cells; background in parentheses
[35] = biological target: CD74 (invariant chain, Ii) (human) (UniProt P04233); assay: flow cytometry, membrane-only CD74, Raji cells; background (GAH-FITC only) in parentheses
[36] = biological target: CD74 (invariant chain, Ii) (human) (UniProt P04233); assay: flow cytometry, membrane-only CD74, A-375 cells; background (GAH-FITC only) in parentheses
[37] = biological target: CD74 (invariant chain, Ii) (human) (UniProt P04233); assay: flow cytometry, membrane-only CD74, HuH-7 cells; background (GAH-FITC only) in parentheses
[38] = biological target: CD74 (invariant chain, Ii) (human) (UniProt P04233); assay: flow cytometry, membrane-only CD74, Hep-G2 cells; background (GAH-FITC only) in parentheses
[39] = biological target: CD74 (invariant chain, Ii) (human) (UniProt P04233); assay: flow cytometry, membrane-only CD74, Hs746T cells; background (GAH-FITC only) in parentheses
[40] = biological target: CD74 (invariant chain, Ii) (human) (UniProt P04233); assay: flow cytometry, membrane-only CD74, Capan-1 cells; background (GAH-FITC only) in parentheses
[41] = biological target: CD74 (invariant chain, Ii) (human) (UniProt P04233); assay: flow cytometry, membrane-only CD74, NCI-N87 cells; background (GAH-FITC only) in parentheses
CD20 (human) [42] = biological target: CD20 (human) (UniProt P11836); assay: flow cytometry, unconjugated antibody + FITC goat anti-human IgG, 697 cells; background in parentheses
CD20 (human) [43] = biological target: CD20 (human) (UniProt P11836); assay: flow cytometry, unconjugated antibody + FITC goat anti-human IgG, REH cells; background in parentheses
CD20 (human) [44] = biological target: CD20 (human) (UniProt P11836); assay: flow cytometry, unconjugated antibody + FITC goat anti-human IgG, Raji cells; background in parentheses
CD20 (human) [45] = biological target: CD20 (human) (UniProt P11836); assay: flow cytometry, unconjugated antibody + FITC goat anti-human IgG, Daudi cells; background in parentheses
CD20 (human) [46] = biological target: CD20 (human) (UniProt P11836); assay: flow cytometry, unconjugated antibody + FITC goat anti-human IgG, MN-60 cells; background in parentheses
CD20 (human) [47] = biological target: CD20 (human) (UniProt P11836); assay: flow cytometry, unconjugated antibody + FITC goat anti-human IgG, Ramos cells; background in parentheses
CD20 (human) [48] = biological target: CD20 (human) (UniProt P11836); assay: flow cytometry, unconjugated antibody + FITC goat anti-human IgG, Jeko-1 cells; background in parentheses
CD20 (human) [49] = biological target: CD20 (human) (UniProt P11836); assay: flow cytometry, unconjugated antibody + FITC goat anti-human IgG, RS4;11 cells; background in parentheses
CD20 (human) [50] = biological target: CD20 (human) (UniProt P11836); assay: flow cytometry, unconjugated antibody + FITC goat anti-human IgG, WSU-FSCCL cells; background in parentheses
CEACAM6 (human) [51] = biological target: CEACAM6 (human) (UniProt P40199); assay: flow cytometry, Hep-G2 cells
CEACAM6 (human) [52] = biological target: CEACAM6 (human) (UniProt P40199); assay: flow cytometry, surface, HuH-7 cells
CEACAM6 (human) [53] = biological target: CEACAM6 (human) (UniProt P40199); assay: flow cytometry, surface, NCI-N87 cells

Sequence of CD74 (invariant chain, Ii) (human) (P04233 whole entry, change not shown): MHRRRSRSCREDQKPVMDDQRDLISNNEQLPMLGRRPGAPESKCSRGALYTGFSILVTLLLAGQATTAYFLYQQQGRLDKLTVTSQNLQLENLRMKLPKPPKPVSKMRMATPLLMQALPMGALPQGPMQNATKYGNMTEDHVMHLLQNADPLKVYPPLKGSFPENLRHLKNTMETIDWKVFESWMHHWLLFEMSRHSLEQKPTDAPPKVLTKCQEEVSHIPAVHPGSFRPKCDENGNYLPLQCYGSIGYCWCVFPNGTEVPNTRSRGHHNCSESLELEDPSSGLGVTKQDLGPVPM
Sequence of human trophoblast cell-surface antigen (TROP-2) (human) (P09758 27-323): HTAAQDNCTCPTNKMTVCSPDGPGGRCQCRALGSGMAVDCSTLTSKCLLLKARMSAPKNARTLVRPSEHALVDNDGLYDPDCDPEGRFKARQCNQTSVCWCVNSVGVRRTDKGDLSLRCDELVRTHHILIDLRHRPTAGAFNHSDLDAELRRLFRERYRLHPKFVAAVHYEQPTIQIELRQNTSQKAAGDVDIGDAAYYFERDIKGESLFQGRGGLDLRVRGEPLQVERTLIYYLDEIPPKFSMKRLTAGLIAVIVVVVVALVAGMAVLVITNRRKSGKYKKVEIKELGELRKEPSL
Sequence of CEACAM6 (human) (P40199 35-320): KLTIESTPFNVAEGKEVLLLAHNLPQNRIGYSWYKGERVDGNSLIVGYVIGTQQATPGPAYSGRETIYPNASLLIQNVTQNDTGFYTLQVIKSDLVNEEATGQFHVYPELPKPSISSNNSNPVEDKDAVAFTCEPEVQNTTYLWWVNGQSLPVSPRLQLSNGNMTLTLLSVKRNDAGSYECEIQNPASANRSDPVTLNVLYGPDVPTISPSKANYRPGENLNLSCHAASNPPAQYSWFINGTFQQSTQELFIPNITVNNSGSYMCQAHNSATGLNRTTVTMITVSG
Sequence of CD20 (human) (P11836 whole entry): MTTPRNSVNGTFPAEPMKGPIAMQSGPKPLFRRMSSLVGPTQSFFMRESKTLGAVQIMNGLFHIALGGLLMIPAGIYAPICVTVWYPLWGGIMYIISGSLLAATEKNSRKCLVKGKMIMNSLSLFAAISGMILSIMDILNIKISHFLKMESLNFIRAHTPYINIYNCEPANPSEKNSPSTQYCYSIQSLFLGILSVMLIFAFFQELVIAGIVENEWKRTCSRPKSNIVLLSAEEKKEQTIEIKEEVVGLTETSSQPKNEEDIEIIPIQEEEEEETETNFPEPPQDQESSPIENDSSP

## epratuzumab (hLL2), humanized anti-CD22 IgG1 (antibody)
CD22 (human) [1]
  median fluorescence: 16
CD22 (human) [2]
  median fluorescence: 22.9
CD22 (human) [3]
  median fluorescence: 45.9
CD22 (human) [4]
  median fluorescence: 145
CD22 (human) [5]
  median fluorescence: 10.3
CD22 (human) [6]
  median fluorescence: 40.8
CD22 (human) [7]
  median fluorescence: 11.2
CD22 (human) [8]
  median fluorescence: 23.3
CD22 (human) [9]
  median fluorescence: 7.7

## hRS7-CL2-SN-38 (hRS7 IgG conjugated to SN-38 through the CL2 linker) (antibody)
[10]
  Kd: 1.2 nM

## hRS7-CL2A-SN-38 (hRS7 IgG conjugated to SN-38 through the CL2A linker) (antibody)
[10]
  Kd: 1.2 nM

## humanized RS7 IgG (hRS7), anti-TROP-2 (anti-EGP-1) humanized antibody
[11]
  MFI (surface): 795
[12]
  MFI (surface): 237

## milatuzumab (hLL1), humanized anti-CD74 IgG1 (antibody)
[13]
  MFI Ratio hLL1:bkgd (surface and cytoplasmic): 28.6
[14]
  MFI Ratio hLL1:bkgd (surface and cytoplasmic): 30.8
[15]
  MFI Ratio hLL1:bkgd (surface and cytoplasmic): 28.5
[16]
  MFI Ratio hLL1:bkgd (surface and cytoplasmic): 31.2
[17]
  MFI Ratio hLL1:bkgd (surface and cytoplasmic): 28.8
[18]
  MFI Ratio hLL1:bkgd (surface and cytoplasmic): 49.6
[19]
  MFI Ratio hLL1:bkgd (surface and cytoplasmic): 36.7
[20]
  Kd: 0.77 nM
[21]
  MFI Ratio hLL1:bkgd (surface): 19.6
[22]
  MFI Ratio hLL1:bkgd (surface): 5.3
[23]
  MFI Ratio hLL1:bkgd (surface): 1.6
[24]
  MFI Ratio hLL1:bkgd (surface): 1.5
[25]
  MFI Ratio hLL1:bkgd (surface): 2.1
[26]
  MFI Ratio hLL1:bkgd (surface): 1.8
[27]
  MFI Ratio hLL1:bkgd (surface): 1.3
[28]
  MFI (surface and cytoplasmic): 143
[29]
  MFI (surface and cytoplasmic): 185
[30]
  MFI (surface and cytoplasmic): 114
[31]
  MFI (surface and cytoplasmic): 156
[32]
  MFI (surface and cytoplasmic): 144
[33]
  MFI (surface and cytoplasmic): 248
[34]
  MFI (surface and cytoplasmic): 220
[35]
  MFI (surface): 59
[36]
  MFI (surface): 16
[37]
  MFI (surface): 8
[38]
  MFI (surface): 9
[39]
  MFI (surface): 17
[40]
  MFI (surface): 22
[41]
  MFI (surface): 5

## milatuzumab-CL2A-SN-38 (antibody)
[20]
  Kd: 0.59 nM

## milatuzumab-CL2E-SN-38 (antibody)
[20]
  Kd: 0.8 nM

## veltuzumab (hA20), humanized anti-CD20 IgG1 (antibody)
CD20 (human) [42]
  median fluorescence: 6.9
CD20 (human) [43]
  median fluorescence: 12.3
CD20 (human) [44]
  median fluorescence: 422
CD20 (human) [45]
  median fluorescence: 815
CD20 (human) [46]
  median fluorescence: 21.5
CD20 (human) [47]
  median fluorescence: 620
CD20 (human) [48]
  median fluorescence: 605
CD20 (human) [49]
  median fluorescence: 3.7
CD20 (human) [50]
  median fluorescence: 97.4

B1: hMN-15, humanized anti-CEACAM6 IgG1 (antibody, from a related filing, V domains shown)
VH: QVQLVESGGGVVQPGRSLRLSCSSSGFALTDYYMSWVRQAPGKGLEWLGFIANKANGHTTDYSPSVKGRFTISRDNSKNTLFLQMDSLRPEDTGVYFCARDMGIRWNFDVWGQGTPVTVSS
VL: DIQLTQSPSSLSASVGDRVTMTCSASSRVSYIHWYQQKPGKAPKRWIYGTSTLASGVPARFSGSGSGTDFTFTISSLQPEDIATYYCQQWSYNPPTFGQGTKVEIKR
CEACAM6 (human) [51]
  MFI: 175
CEACAM6 (human) [52]
  MFI (surface): 81
CEACAM6 (human) [53]
  MFI (surface): 1120
